Measured values published in publication PMC7305210, “Mitochondria-adaptor TRAK1 promotes kinesin-1 driven transport in crowded environments” (Nature Communications, 2020).

T1: GFP-labelled KIF5B∆ (KIF5B without the inhibitory domain, amino acids 906-963) (human, UniProt P33176 1-905)
T1 construct: Constitutively active construct; also called KIF5B∆-GFP; source: SF9 insect cells (FlexiBAC baculovirus), purified (Ni-NTA, 6xHis cleaved by 3C PreScission protease, second Ni-NTA); not shown: GFP, C-terminal, kept; 6xHis, C-terminal, cleaved
T1 sequence (looked up): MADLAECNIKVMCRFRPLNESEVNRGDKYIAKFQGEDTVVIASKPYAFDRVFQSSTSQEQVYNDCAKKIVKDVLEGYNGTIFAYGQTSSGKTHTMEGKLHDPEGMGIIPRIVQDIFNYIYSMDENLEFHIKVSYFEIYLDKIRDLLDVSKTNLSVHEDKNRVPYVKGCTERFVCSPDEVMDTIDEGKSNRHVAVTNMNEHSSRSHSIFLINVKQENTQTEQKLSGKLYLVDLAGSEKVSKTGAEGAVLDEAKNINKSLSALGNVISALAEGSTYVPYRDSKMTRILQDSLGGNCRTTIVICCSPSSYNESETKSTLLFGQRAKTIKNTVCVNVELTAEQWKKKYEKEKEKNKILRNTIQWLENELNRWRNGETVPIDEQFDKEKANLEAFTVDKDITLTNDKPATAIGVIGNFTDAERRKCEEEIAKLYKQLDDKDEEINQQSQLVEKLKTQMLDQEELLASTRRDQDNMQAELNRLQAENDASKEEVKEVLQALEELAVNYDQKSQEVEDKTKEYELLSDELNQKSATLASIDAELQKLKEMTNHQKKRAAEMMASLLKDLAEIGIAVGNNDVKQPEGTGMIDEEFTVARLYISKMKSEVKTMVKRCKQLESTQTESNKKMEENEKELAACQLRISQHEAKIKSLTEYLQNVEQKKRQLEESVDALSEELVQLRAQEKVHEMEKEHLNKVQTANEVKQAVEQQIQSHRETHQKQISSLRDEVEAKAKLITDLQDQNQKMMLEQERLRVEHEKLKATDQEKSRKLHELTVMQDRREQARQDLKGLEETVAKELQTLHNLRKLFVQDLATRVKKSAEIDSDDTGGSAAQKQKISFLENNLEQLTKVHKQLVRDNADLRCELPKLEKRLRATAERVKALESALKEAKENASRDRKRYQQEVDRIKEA


Key:
[1] = molecular target: the molecule itself; assay: single-molecule fluorescence intensity distributions (TIRF) with labelling efficiencies from SEC absorption; intensity distributions of KIF5B∆-mCherry compared with mCherry-TRAK1 in the motility experiments; labelling efficiencies about 22% and about 88%
[2] = molecular target: T1, GFP-labelled KIF5B∆ (KIF5B without the …); assay: as above; details: both partners purified
[3] = molecular target: microtubules polymerized from porcine tubulin (porcine, UniProt P02550 1-451; Q767L7 1-444, Alexa Fluor 647 NHS ester on 20% of the tubulin in fluorescently labeled microtubules | Alexa Fluor 647 NHS ester on 20% of the tubulin in fluorescently labeled microtubules); assay: single-molecule TIRF microscopy, two-colour co-movement on immobilised microtubules; KIF5B construct and 175 nM TRAK1 construct pre-incubated 10 min on ice, flushed onto bare immobilised microtubules in motility buffer with 1 mM Mg-ATP; room temperature; for the complexes traces of the mCherry-TRAK1 channel analysed; details: both partners purified

stoichiometry N [2]	median interaction time with microtubules [3] [s]	Binder	stoichiometry N [1]
1 TRAK1 dimer per KIF5B dimer	–	mCherry-labelled full-length TRAK1 (natural protein, UniProt Q9UPV9-1 1-953, looked up, TRAK1 (trafficking kinesin protein 1), cDNA KIAA1042 from the Kazusa DNA Research Institute; 953 residues by the printed region 636-953; also called mCherry-TRAK1; trafficking kinesin protein 1; source: HEK293T cells, transfected, purified (StrepTactinXT, eluted by TEV cleavage of the N-terminal tag, Superose 6 SEC); not shown: mCherry, N-terminal, kept; TwinStrep-FLAG-Halo, N-terminal, cleaved) MALVFQFGQPVRAQPLPGLCHGKLIRTNACDVCNSTDLPEVEIISLLEEQLPHYKLRADTIYGYDHDDWLHTPLISPDANIDLTTEQIEETLKYFLLCAERVGQMTKTYNDIDAVTRLLEEKERDLELAARIGQSLLKKNKTLTERNELLEEQVEHIREEVSQLRHELSMKDELLQFYTSAAEESEPESVCSTPLKRNESSSSVQNYFHLDSLQKKLKDLEEENVVLRSEASQLKTETITYEEKEQQLVNDCVKELRDANVQIASISEELAKKTEDAARQQEEITHLLSQIVDLQKKAKACAVENEELVQHLGAAKDAQRQLTAELRELEDKYAECMEMLHEAQEELKNLRNKTMPNTTSRRYHSLGLFPMDSLAAEIEGTMRKELQLEEAESPDITHQKRVFETVRNINQVVKQRSLTPSPMNIPGSNQSSAMNSLLSSCVSTPRSSFYGSDIGNVVLDNKTNSIILETEAADLGNDERSKKPGTPGTPGSHDLETALRRLSLRRENYLSERRFFEEEQERKLQELAEKGELRSGSLTPTESIMSLGTHSRFSEFTGFSGMSFSSRSYLPEKLQIVKPLEGSATLHHWQQLAQPHLGGILDPRPGVVTKGFRTLDVDLDEVYCLNDFEEDDTGDHISLPRLATSTPVQHPETSAHHPGKCMSQTNSTFTFTTCRILHPSDELTRVTPSLNSAPTPACGSTSHLKSTPVATPCTPRRLSLAESFTNTRESTTTMSTSLGLVWLLKERGISAAVYDPQSWDRAGRGSLLHSYTPKMAVIPSTPPNSPMQTPTSSPPSFEFKCTSPPYDNFLASKPASSILREVREKNVRSSESQTDVSVSNLNLVDKVRRFGVAKVVNSGRAHVPTLTEEQGPLLCGPPGPAPALVPRGLVPEGLPLRCPTVTSAIGGLQLNSGIRRNRSFPTMVGSSMQMKAPVTLTSGILMGAKLSKQTSLR	2
–	19.3	KIF5B-GFP-mCherry-TRAK1 complex (complex, KIF5B, kinesin-1 heavy chain, human, amino acids 1-963; as m1; TRAK1, cDNA KIAA1042; as m5; Only traces of mCherry-TRAK1 were analysed, so that the moving particles are complexes; also called KIF5B-TRAK1 transport complex; source: the two purified proteins (m1 from SF9, m5 from HEK293T) pre-incubated 10 min on ice; not shown: GFP, C-terminal, kept; 6xHis, C-terminal, cleaved; mCherry, N-terminal, …) chain 1: MADLAECNIKVMCRFRPLNESEVNRGDKYIAKFQGEDTVVIASKPYAFDRVFQSSTSQEQVYNDCAKKIVKDVLEGYNGTIFAYGQTSSGKTHTMEGKLHDPEGMGIIPRIVQDIFNYIYSMDENLEFHIKVSYFEIYLDKIRDLLDVSKTNLSVHEDKNRVPYVKGCTERFVCSPDEVMDTIDEGKSNRHVAVTNMNEHSSRSHSIFLINVKQENTQTEQKLSGKLYLVDLAGSEKVSKTGAEGAVLDEAKNINKSLSALGNVISALAEGSTYVPYRDSKMTRILQDSLGGNCRTTIVICCSPSSYNESETKSTLLFGQRAKTIKNTVCVNVELTAEQWKKKYEKEKEKNKILRNTIQWLENELNRWRNGETVPIDEQFDKEKANLEAFTVDKDITLTNDKPATAIGVIGNFTDAERRKCEEEIAKLYKQLDDKDEEINQQSQLVEKLKTQMLDQEELLASTRRDQDNMQAELNRLQAENDASKEEVKEVLQALEELAVNYDQKSQEVEDKTKEYELLSDELNQKSATLASIDAELQKLKEMTNHQKKRAAEMMASLLKDLAEIGIAVGNNDVKQPEGTGMIDEEFTVARLYISKMKSEVKTMVKRCKQLESTQTESNKKMEENEKELAACQLRISQHEAKIKSLTEYLQNVEQKKRQLEESVDALSEELVQLRAQEKVHEMEKEHLNKVQTANEVKQAVEQQIQSHRETHQKQISSLRDEVEAKAKLITDLQDQNQKMMLEQERLRVEHEKLKATDQEKSRKLHELTVMQDRREQARQDLKGLEETVAKELQTLHNLRKLFVQDLATRVKKSAEIDSDDTGGSAAQKQKISFLENNLEQLTKVHKQLVRDNADLRCELPKLEKRLRATAERVKALESALKEAKENASRDRKRYQQEVDRIKEAVRSKNMARRGHSAQIAKPIRPGQHPAASPTHPSAIRGGGAFVQNSQPVAVRGGGGKQV chain 2: MALVFQFGQPVRAQPLPGLCHGKLIRTNACDVCNSTDLPEVEIISLLEEQLPHYKLRADTIYGYDHDDWLHTPLISPDANIDLTTEQIEETLKYFLLCAERVGQMTKTYNDIDAVTRLLEEKERDLELAARIGQSLLKKNKTLTERNELLEEQVEHIREEVSQLRHELSMKDELLQFYTSAAEESEPESVCSTPLKRNESSSSVQNYFHLDSLQKKLKDLEEENVVLRSEASQLKTETITYEEKEQQLVNDCVKELRDANVQIASISEELAKKTEDAARQQEEITHLLSQIVDLQKKAKACAVENEELVQHLGAAKDAQRQLTAELRELEDKYAECMEMLHEAQEELKNLRNKTMPNTTSRRYHSLGLFPMDSLAAEIEGTMRKELQLEEAESPDITHQKRVFETVRNINQVVKQRSLTPSPMNIPGSNQSSAMNSLLSSCVSTPRSSFYGSDIGNVVLDNKTNSIILETEAADLGNDERSKKPGTPGTPGSHDLETALRRLSLRRENYLSERRFFEEEQERKLQELAEKGELRSGSLTPTESIMSLGTHSRFSEFTGFSGMSFSSRSYLPEKLQIVKPLEGSATLHHWQQLAQPHLGGILDPRPGVVTKGFRTLDVDLDEVYCLNDFEEDDTGDHISLPRLATSTPVQHPETSAHHPGKCMSQTNSTFTFTTCRILHPSDELTRVTPSLNSAPTPACGSTSHLKSTPVATPCTPRRLSLAESFTNTRESTTTMSTSLGLVWLLKERGISAAVYDPQSWDRAGRGSLLHSYTPKMAVIPSTPPNSPMQTPTSSPPSFEFKCTSPPYDNFLASKPASSILREVREKNVRSSESQTDVSVSNLNLVDKVRRFGVAKVVNSGRAHVPTLTEEQGPLLCGPPGPAPALVPRGLVPEGLPLRCPTVTSAIGGLQLNSGIRRNRSFPTMVGSSMQMKAPVTLTSGILMGAKLSKQTSLR	–
–	2.22	KIF5B∆-GFP in complex with mCherry-TRAK1∆ (complex, KIF5B, kinesin-1 heavy chain, human, amino acids 1-905; as m2; TRAK1, stop codon after amino acid 635; as m6; source: the two purified proteins (m2 from SF9, m6 from HEK293T) pre-incubated 10 min on ice; not shown: GFP, C-terminal, kept; 6xHis, C-terminal, cleaved; mCherry, N-terminal, kept; TwinStrep-FLAG-Halo, N-terminal, cleaved) chain 1: MADLAECNIKVMCRFRPLNESEVNRGDKYIAKFQGEDTVVIASKPYAFDRVFQSSTSQEQVYNDCAKKIVKDVLEGYNGTIFAYGQTSSGKTHTMEGKLHDPEGMGIIPRIVQDIFNYIYSMDENLEFHIKVSYFEIYLDKIRDLLDVSKTNLSVHEDKNRVPYVKGCTERFVCSPDEVMDTIDEGKSNRHVAVTNMNEHSSRSHSIFLINVKQENTQTEQKLSGKLYLVDLAGSEKVSKTGAEGAVLDEAKNINKSLSALGNVISALAEGSTYVPYRDSKMTRILQDSLGGNCRTTIVICCSPSSYNESETKSTLLFGQRAKTIKNTVCVNVELTAEQWKKKYEKEKEKNKILRNTIQWLENELNRWRNGETVPIDEQFDKEKANLEAFTVDKDITLTNDKPATAIGVIGNFTDAERRKCEEEIAKLYKQLDDKDEEINQQSQLVEKLKTQMLDQEELLASTRRDQDNMQAELNRLQAENDASKEEVKEVLQALEELAVNYDQKSQEVEDKTKEYELLSDELNQKSATLASIDAELQKLKEMTNHQKKRAAEMMASLLKDLAEIGIAVGNNDVKQPEGTGMIDEEFTVARLYISKMKSEVKTMVKRCKQLESTQTESNKKMEENEKELAACQLRISQHEAKIKSLTEYLQNVEQKKRQLEESVDALSEELVQLRAQEKVHEMEKEHLNKVQTANEVKQAVEQQIQSHRETHQKQISSLRDEVEAKAKLITDLQDQNQKMMLEQERLRVEHEKLKATDQEKSRKLHELTVMQDRREQARQDLKGLEETVAKELQTLHNLRKLFVQDLATRVKKSAEIDSDDTGGSAAQKQKISFLENNLEQLTKVHKQLVRDNADLRCELPKLEKRLRATAERVKALESALKEAKENASRDRKRYQQEVDRIKEA chain 2: MALVFQFGQPVRAQPLPGLCHGKLIRTNACDVCNSTDLPEVEIISLLEEQLPHYKLRADTIYGYDHDDWLHTPLISPDANIDLTTEQIEETLKYFLLCAERVGQMTKTYNDIDAVTRLLEEKERDLELAARIGQSLLKKNKTLTERNELLEEQVEHIREEVSQLRHELSMKDELLQFYTSAAEESEPESVCSTPLKRNESSSSVQNYFHLDSLQKKLKDLEEENVVLRSEASQLKTETITYEEKEQQLVNDCVKELRDANVQIASISEELAKKTEDAARQQEEITHLLSQIVDLQKKAKACAVENEELVQHLGAAKDAQRQLTAELRELEDKYAECMEMLHEAQEELKNLRNKTMPNTTSRRYHSLGLFPMDSLAAEIEGTMRKELQLEEAESPDITHQKRVFETVRNINQVVKQRSLTPSPMNIPGSNQSSAMNSLLSSCVSTPRSSFYGSDIGNVVLDNKTNSIILETEAADLGNDERSKKPGTPGTPGSHDLETALRRLSLRRENYLSERRFFEEEQERKLQELAEKGELRSGSLTPTESIMSLGTHSRFSEFTGFSGMSFSSRSYLPEKLQIVKPLEGSATLHHWQQLAQPHLGGILDPRPGVVTKGFRTLDVDLDEVYCLNDFEEDDTGD	–
